Values belong to the molecule of their own block, whether it stands above or below them.
Experiments:
Myo1E (myosin 1E) = Myo1E (myosin 1E) (UniProt Q12965); experiment: reciprocal co-IP of endogenous proteins, immunoblot; settings: sites S202
recombinant SH3P2 = biological target: T1, recombinant SH3P2 (human, UniProt Q92882 1-214); experiment: pull-down
T1 sequence (looked up): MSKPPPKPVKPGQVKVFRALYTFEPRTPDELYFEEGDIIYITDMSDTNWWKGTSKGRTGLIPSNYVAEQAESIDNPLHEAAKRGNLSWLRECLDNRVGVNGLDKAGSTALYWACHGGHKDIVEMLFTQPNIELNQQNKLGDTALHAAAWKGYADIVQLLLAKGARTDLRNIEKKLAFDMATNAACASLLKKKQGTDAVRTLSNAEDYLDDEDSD

other: % of lysate Myo1E associated with SH3P2 (Myo1E (myosin 1E); reference: serum-deprived cells): weaker; reference 78.4 ± 6.8
Molecule: SH3P2 (from UniProt Q92882) 10% FBS, 10 min

other: % of lysate Myo1E associated with SH3P2 (Myo1E (myosin 1E); reference: untreated cells): stronger; reference 6.1 ± 2.1
Molecule: SH3P2 (from UniProt Q92882) 10 µM PD184352, 4 h

binding result (recombinant SH3P2): binds
B1: GST-Myo1E(SH3) (domain or fragment, human, UniProt Q12965 1039-1108, looked up)
chain: AGGRPKPQPKPKPQVPQCKALYAYDAQDTDELSFNANDIIDIIKEDPSGWWTGRLRGKQGLFPNNYVTKI
